Measured values taken from patent US20120039802A1 (published 2012).

What was measured:
[1] = molecular target: T1, cMet-Fc fusion protein (extracellular domain of the cMet receptor expressed as an Fc-fusion protein) (human, UniProt P08581 25-932); test: phage ELISA, cMet-Fc vs TRAIL-Fc
T1 construct: extracellular domain; also called soluble cMet-Fc-fusion protein; soluble cMet receptor; not shown: Fc part
Protocol: Protein phage ELISAs using peptide-displaying phage isolates from the various selection campaigns were performed to determine specificity of the peptides for cMet versus an unrelated Fc-fusion protein (TRAIL-Fe). Briefly, 384-well plates were coated overnight at 4 C with 0.5 μg/mL of cMet-Fc fusion protein or TRAIL-Fc fusion protein (background). The plates were blocked for 2 hours 37 C with 3% (w/v) BSA in PBS containing 0.05% (v/v) Tween-20 (PBST). The plates were washed with PBST and 100 μL of peptide-displaying phage were added to each well. The plates were incubated for 2 hours at room temperature and washed with PBST. cMet-binding peptide-displaying phage were detected using an HRP-conjugated anti-M13 antibody.

[2] = molecular target: T1, cMet-Fc fusion protein (extracellular …); test: phage ELISA on cMet-Fc, competitor HGF 500 ng/mL
Protocol: (§1) These assays were conducted using the peptide-displaying phage discovered from the initial selection and screening campaigns using the first generation peptide libraries. Briefly, 96-well plates were coated overnight at 4 C with 0.5 μg/mL of cMet-Fc fusion protein or TRAIL-Fc fusion protein (background). The plates were blocked for 2 hours at 37 C with 3% BSA in PBST. […] This was followed by an addition of 30 μL of peptide-displaying phage overnight culture to each well. The plates were incubated for 2 hours at room temperature, washed with PBST and cMet-binding peptide-displaying phage was detected using an HRP-conjugated anti-M13 antibody.

[3] = molecular target: T1, cMet-Fc fusion protein (extracellular …); test: phage ELISA on cMet-Fc, competitor HGF 100 ng/mL
Protocol: as §1

[4] = molecular target: T2, human cMet expressed on 3T3 cells (human, UniProt P08581 25-1390); test: whole cell phage ELISA, 3T3 human cMet vs 3T3
T2 construct: whole, on cells; cells fixed with glutaraldehyde; also called cell surface-expressed human cMet; 3T3 cells that over-express human cMet
T2 sequence (P08581 25-1390): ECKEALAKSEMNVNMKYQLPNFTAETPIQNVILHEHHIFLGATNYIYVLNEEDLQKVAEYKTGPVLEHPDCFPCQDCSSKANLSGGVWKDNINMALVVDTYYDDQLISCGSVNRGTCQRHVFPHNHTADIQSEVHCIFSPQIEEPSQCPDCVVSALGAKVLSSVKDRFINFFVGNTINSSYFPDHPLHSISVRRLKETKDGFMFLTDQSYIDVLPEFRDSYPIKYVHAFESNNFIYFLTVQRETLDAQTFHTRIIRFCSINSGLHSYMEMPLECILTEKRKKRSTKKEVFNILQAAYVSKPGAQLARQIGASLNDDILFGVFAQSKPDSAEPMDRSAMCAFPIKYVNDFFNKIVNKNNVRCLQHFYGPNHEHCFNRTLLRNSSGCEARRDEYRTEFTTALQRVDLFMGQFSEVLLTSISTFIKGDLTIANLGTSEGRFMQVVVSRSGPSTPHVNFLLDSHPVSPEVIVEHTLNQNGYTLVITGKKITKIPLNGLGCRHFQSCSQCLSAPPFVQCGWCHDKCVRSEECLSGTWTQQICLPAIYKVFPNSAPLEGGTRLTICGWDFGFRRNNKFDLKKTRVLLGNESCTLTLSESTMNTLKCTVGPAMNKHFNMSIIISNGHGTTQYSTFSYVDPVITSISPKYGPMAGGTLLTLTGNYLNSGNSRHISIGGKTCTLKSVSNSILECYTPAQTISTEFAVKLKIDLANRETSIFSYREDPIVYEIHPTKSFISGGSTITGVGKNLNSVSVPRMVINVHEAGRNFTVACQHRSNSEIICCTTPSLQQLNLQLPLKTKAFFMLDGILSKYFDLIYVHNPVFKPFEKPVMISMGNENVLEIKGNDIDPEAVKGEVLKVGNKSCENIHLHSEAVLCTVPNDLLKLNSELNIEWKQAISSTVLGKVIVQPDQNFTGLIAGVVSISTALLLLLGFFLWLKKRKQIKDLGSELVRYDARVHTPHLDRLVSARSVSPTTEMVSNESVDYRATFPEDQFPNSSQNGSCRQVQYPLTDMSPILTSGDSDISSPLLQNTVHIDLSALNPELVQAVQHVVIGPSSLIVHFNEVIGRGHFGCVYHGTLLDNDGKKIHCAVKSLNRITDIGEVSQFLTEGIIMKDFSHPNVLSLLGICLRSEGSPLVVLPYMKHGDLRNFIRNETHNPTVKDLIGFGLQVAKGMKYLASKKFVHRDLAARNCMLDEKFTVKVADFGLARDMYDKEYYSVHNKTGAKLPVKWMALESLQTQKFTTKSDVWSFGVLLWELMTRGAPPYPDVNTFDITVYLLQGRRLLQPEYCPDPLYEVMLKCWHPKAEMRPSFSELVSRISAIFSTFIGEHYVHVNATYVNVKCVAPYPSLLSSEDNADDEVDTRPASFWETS
Protocol: Whole cell ELISAs were performed using 3T3 cells that over-express human cMet. […] Briefly, 96-well plates were seeded with 10⁵ cells per well. The plates were centrifuged for 5 minutes at 1600 rpm to pellet the cells. The resulting cell layer was fixed with 0.1% (v/v) glutaraldehyde for 12 minutes at 37 C. […] Peptide-displaying phage also were blocked in the above solution for 1 hour at 37 C. 100 μL of blocked phage was then added to each well and the plates were incubated for 1 hour at room temperature. The plates were washed with PBST. cMet-binding peptide-displaying phage were detected using an HRP-conjugated anti-M13 antibody.

T1 sequence (P08581 25-932): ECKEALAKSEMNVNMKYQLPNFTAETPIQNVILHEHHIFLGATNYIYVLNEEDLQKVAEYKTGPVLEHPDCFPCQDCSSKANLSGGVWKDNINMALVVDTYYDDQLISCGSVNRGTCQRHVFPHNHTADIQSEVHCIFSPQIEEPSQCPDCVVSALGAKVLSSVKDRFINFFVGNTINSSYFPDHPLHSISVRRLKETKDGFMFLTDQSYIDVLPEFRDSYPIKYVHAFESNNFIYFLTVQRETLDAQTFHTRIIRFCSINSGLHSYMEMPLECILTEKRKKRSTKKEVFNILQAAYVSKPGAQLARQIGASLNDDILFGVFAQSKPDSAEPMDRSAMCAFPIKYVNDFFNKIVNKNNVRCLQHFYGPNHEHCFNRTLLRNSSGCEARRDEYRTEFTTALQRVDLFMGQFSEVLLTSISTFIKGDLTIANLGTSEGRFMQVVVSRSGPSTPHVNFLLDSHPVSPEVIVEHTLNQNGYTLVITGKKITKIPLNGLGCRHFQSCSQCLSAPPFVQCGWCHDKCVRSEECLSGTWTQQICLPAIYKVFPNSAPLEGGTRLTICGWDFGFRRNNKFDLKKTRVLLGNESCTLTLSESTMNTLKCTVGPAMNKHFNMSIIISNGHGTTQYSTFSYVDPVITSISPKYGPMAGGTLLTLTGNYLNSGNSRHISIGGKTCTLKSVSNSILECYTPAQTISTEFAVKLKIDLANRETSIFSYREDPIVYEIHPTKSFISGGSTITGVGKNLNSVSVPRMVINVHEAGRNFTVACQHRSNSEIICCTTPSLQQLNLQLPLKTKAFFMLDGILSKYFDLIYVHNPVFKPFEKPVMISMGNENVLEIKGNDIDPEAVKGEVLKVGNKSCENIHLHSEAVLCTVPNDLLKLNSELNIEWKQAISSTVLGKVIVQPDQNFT

B1: 333-H03 peptide-displaying phage (SEQ ID NO: 060) (peptide)
peptide: AGYFECKGPPTFECWLSGT
- Protein ELISA (fold over background) [1]: 8.1 fold
- % of binding in the absence of HGF [2]: 37%
- % of binding in the absence of HGF [3]: 55%
- WC ELISA (fold over background) [4]: 1.43 fold

B2: 538-F08 peptide-displaying phage (SEQ ID NO: 057) (peptide)
peptide: AGFVNCKGPPTFECILTGT
- Protein ELISA (fold over background) [1]: 12.3 fold
- % of binding in the absence of HGF [2]: 43%
- % of binding in the absence of HGF [3]: 55%
- WC ELISA (fold over background) [4]: 1.23 fold

B3: 330-B07 peptide-displaying phage (SEQ ID NO: 053) (peptide)
peptide: AGSFACKGPPTFACVEFGT
- Protein ELISA (fold over background) [1]: 18.1 fold
- % of binding in the absence of HGF [2]: 40%
- % of binding in the absence of HGF [3]: 58%
- WC ELISA (fold over background) [4]: 1.27 fold

B4: 334-G06 peptide-displaying phage (SEQ ID NO: 052) (peptide)
peptide: AGWTHCIGPPTFECIPMGT
- Protein ELISA (fold over background) [1]: 8 fold
- % of binding in the absence of HGF [2]: 43%
- % of binding in the absence of HGF [3]: 56%
- WC ELISA (fold over background) [4]: 1.3 fold

B5: 452-F01 peptide-displaying phage (SEQ ID NO: 006) (peptide)
peptide: GSEYSCRTSRCIFSAP
- Protein ELISA (fold over background) [1]: 3.2 fold
- % of binding in the absence of HGF [2]: 110%
- % of binding in the absence of HGF [3]: 117%
- WC ELISA (fold over background) [4]: 1.33 fold

B6: 331-G04 peptide-displaying phage (SEQ ID NO: 055) (peptide)
peptide: AGSWHCAGPPSFECWEFGT
- Protein ELISA (fold over background) [1]: 18.3 fold
- % of binding in the absence of HGF [2]: 36%
- % of binding in the absence of HGF [3]: 56%
- WC ELISA (fold over background) [4]: 1.47 fold

B7: 550-C09 peptide-displaying phage (SEQ ID NO: 062) (peptide)
peptide: AGHYWCAGPPTFICMGPGT
- Protein ELISA (fold over background) [1]: 10.2 fold
- % of binding in the absence of HGF [2]: 25%
- % of binding in the absence of HGF [3]: 25%
- WC ELISA (fold over background) [4]: 1.4 fold

B8: 323-A11 peptide-displaying phage (SEQ ID NO: 059) (peptide)
peptide: AGYTSCVGPPSFECTPYGT
- Protein ELISA (fold over background) [1]: 21.2 fold
- % of binding in the absence of HGF [2]: 18%
- % of binding in the absence of HGF [3]: 41%
- WC ELISA (fold over background) [4]: 1.43 fold

B9: 336-G04 peptide-displaying phage (SEQ ID NO: 051) (peptide)
peptide: AGWFQCKGPPSFECERHGT
- Protein ELISA (fold over background) [1]: 5.4 fold
- % of binding in the absence of HGF [2]: 23%
- % of binding in the absence of HGF [3]: 46%
- WC ELISA (fold over background) [4]: 1.33 fold

B10: 329-D02 peptide-displaying phage (SEQ ID NO: 061) (peptide)
peptide: AGHAWCSGPPRFECWPPGT
- Protein ELISA (fold over background) [1]: 3.2 fold
- % of binding in the absence of HGF [2]: 31%
- % of binding in the absence of HGF [3]: 53%
- WC ELISA (fold over background) [4]: 1.27 fold

B11: 547-H07 peptide-displaying phage (SEQ ID NO: 058) (peptide)
peptide: AGDWICHGPPMFECEWVGT
- Protein ELISA (fold over background) [1]: 15.9 fold
- % of binding in the absence of HGF [2]: 45%
- % of binding in the absence of HGF [3]: 60%
- WC ELISA (fold over background) [4]: 1.17 fold

B12: 571-C05 peptide-displaying phage (SEQ ID NO: 001) (peptide)
peptide: GSWIICWWDNCGSSAP
- Protein ELISA (fold over background) [1]: 4.9 fold
- % of binding in the absence of HGF [2]: 74%
- % of binding in the absence of HGF [3]: 102%
- WC ELISA (fold over background) [4]: 1.3 fold

B13: 333-F09 peptide-displaying phage (SEQ ID NO: 050) (peptide)
peptide: AGQFKCAGPPSFACWMTGT
- Protein ELISA (fold over background) [1]: 14.8 fold
- % of binding in the absence of HGF [2]: 32%
- % of binding in the absence of HGF [3]: 52%
- WC ELISA (fold over background) [4]: 1.43 fold

B14: 548-F06 peptide-displaying phage (SEQ ID NO: 056) (peptide)
peptide: AGWISCAGPPTFACWPGGT
- Protein ELISA (fold over background) [1]: 14.3 fold
- % of binding in the absence of HGF [2]: 18%
- % of binding in the absence of HGF [3]: 76%
- WC ELISA (fold over background) [4]: 1.23 fold

B15: 330-C10 peptide-displaying phage (SEQ ID NO: 054) (peptide)
peptide: AGNYFCAGSPSFSCYFMGT
- Protein ELISA (fold over background) [1]: 13.4 fold
- % of binding in the absence of HGF [2]: 25%
- % of binding in the absence of HGF [3]: 48%
- WC ELISA (fold over background) [4]: 1.33 fold
